Test results as given in the nanobody polyreactivity screen of Harvey et al. (2022).

Experiment: yeast display, Sf9 membrane polyspecificity reagent, FACS + sequencing; frameworks hold sequencing errors
How it was run: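 Galactose-induced (36–48 hours) yeast carrying a synthetic nanobody display library were exposed to 10% biotinylated, detergent-solubilized Sf9 membrane reagent at 4 °C for 1 hour. FACS followed streptavidin microbead enrichment, using low and high (top ~1%) gates for expression (anti-HA) and reagent binding (streptavidin). Colony PCR, MiSeq 2 × 250 sequencing and CDR-length filtering followed. Labels for polyreactivity reflect the gate of origin.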

| Sequence | polyreactivity (PSR sort gate) |
| --- | --- |
| QVQLVESGGGLVQAGGSLRLSCAASGGTISYYAMGRYRQAPRKERELVAAINWSGASTYYADSVKGRFTNSRDNAKYTVYLELNSLKPEETAVYYCAADSIQYTARPYDYWGQGTQVTVSS | low polyreactivity |
| QVQLVESGGGLVQAGGSLRLSCAASGGTIVGYAMGWYRQAPGKERELVAAIDSSGGSTYYADSVKGRFTISRDNAKNTVYLQMNSLKPEDTAVYYCAALSTNYYISPYYYYNSKGYDYWGQGTQVTVSS | high polyreactivity |
| QVQLVESGGGLVQAGGSLRLSCAASGGTIYDNTMGWYRQAPGKERELVAAISRDGSTNYADSVKGRFTISRDNAKNTVYLQMNSLKPEDTAVYYCNKDPVSEYRSPGFPVTYDYWGQGTQVTVSS | low polyreactivity |
| QVQLVESGGGLVQAGGSLRLSCAASGGTLFTNAMGWYRQAPGKERELVAAISWRGGRTYYADSVKGRFTISRDNAKNTVYLQMNSLKPEDTAVYYCAAASAAGYDYWGQGTQVTVSS | low polyreactivity |
| QVQLVESGGGLVQAGGSLRLSCAASGGTLQGNAMGWYRPAPGKERELVAAISSRGGRTYYADSVKGRFTSSRDNAKNTVYLQMNSLKPEDTAVYYCNAEYPVYFEGYPYYWDYWGDSWGQGTQVTVSS | high polyreactivity |
| QVQLVESGGGLVQAGGSLRLSCAASGGTLQGNAMGWYRQAPGKERELVAAISSRGGRTYYADSVKGRFTISRDNAKNTVYLQMNSLKPEDTAVYYCAAVQKGDSTLLRTKGGYWGQGTQVTVSS | high polyreactivity |
| QVQLVESGGGLVQAGGSLRLSCAASGGTLVRYAMGWYRQAPGKERELVAAIDRDGDSTYYADSVKGRFTISRDNAKNTVYLQMNSLKPEDTAVYYCNADEIRQTDGYDYWGQGTQVTVSS | high polyreactivity |
| QVQLVESGGGLVQAGGSLRLSCAASGGTLYTYAMGWYRQAPGKEWEFVAAITVSGGRTYYADSVKGRFTISRDNAKNTVYLLMNSLKPEDTAVYYCAARYWSWRSFKVDYWGQGTQVTVSS | high polyreactivity |
| QVQLVESGGGLVQAGGSLRLSCAASGGTMLYYAMGWYRQAPRKEMELVAVITSSAGRTYYADSVKGRITISRDNAKITVYLLMNSLKPEDTAVSYCNATGYLVGSISIYDYWGQGTQVTVSS | low polyreactivity |
| QVQLVESGGGLVQAGGSLRLSCAASGGTYHANAMGWYRQAPGKERELVAGITSGGSTYYADSVKGRFTISRDNAKNTVYLQMNSLKPEDTAVYYCNARYPLNIIRGFVWWTVGHDYWGQGTQVTVSS | low polyreactivity |
| QVQLVESGGGLVQAGGSLRLSCAASGGTYRVKAMGWYRQAPGKEREFVAAISGSGSSTYYADSVKGRFTISRDNAKNTVYLQMNSLKPEDTAVYYCAARSCVGGDNDYWGQGTQVTVSS | low polyreactivity |
| QVQLVESGGGLVQAGGSLRLSCAASGHIFFYYTMGWYRQAPGKERELVAGITIGGSTNYADSVKGRFTISRDNAKNTVYLQMNSLKPEDTAVYYCNVVNYVYIYSYWEYYYWGQGTQVTVSS | low polyreactivity |
| QVQLVESGGGLVQAGGSLRLSCAASGHIFNYYAMGWYRQAPGKERELVAAIRSGARTSYADSVKGRFTISRDNAKNTVNLQMNSLKPEDTAVYYCAAVGVAYLYPSDYWGQGTQVPVSS | high polyreactivity |
| QVQLVESGGGLVQAGGSLRLSCAASGHTFYYYTMGWYRQAPGKERELVASIRNGGNTNYADSVKGRFTISRDTAKNTVYLQMHSLKPEDTAVYYCAAVFGWSYITAYDWGQGTQVTVSS | high polyreactivity |
| QVQLVESGGGLVQAGGSLRLSCAASGHTYRYYAMGWYRQAPGKERELVAAITGGGGSTYYADSVKGRFTISRDNAKNTVYLQMNSLKPEDTAVYYCATGGVSGIVGGDYWGQGTQVTVSS | low polyreactivity |
| QVQLVESGGGLVQAGGSLRLSCAASGIAYTYNAMGRYRQAPGKERELVASISRTGGSTRYADSVKGRFTISRDNAKYTVYLQMNSLKPEDTAVYYCAALSWRYVKYRFDYWGQGTQVTVSS | high polyreactivity |
| QVQLVESGGGLVQAGGSLRLSCAASGIFASYAMGWYRQAPGKERELVAAIRSSGGRTYYADSVKGRFTISRDNAKNTFYLQMNSLKPEDTAVYYCAARYYTYDGYSKYDFWGQGTQVTVSS | high polyreactivity |
